# In paper PMC2919855 (Biochemistry, 2010):
# Non-standard residues stand in square brackets, D forms with d. Residues, ends and D or L forms follow the SMILES beside them. No end group written: not given here. *: point of attachment. Proxyl = 3-carboxy-2,2,5,5-tetramethylpyrrolidinyloxy spin label; TOAC = CC1(C)CC(N)(C(=O)O)CC(C)(C)N1[O]; X1 = CC1(C)CC(C(=O)*)C(C)(C)N1[O]; Aib = CC(C)(N)C(=O)O
# Assays:
# [1] = target: photoactivated rhodopsin (R*) in ROS membranes (Bos taurus, UniProt P02699); assay: Direct binding by EPR: spectral integration of bound and free peptide components
# [2] = target: T1, rhodopsin in rod outer segments (ROS) (Bos taurus, UniProt P02699); assay: Meta II; format: biochemical; details: result in words
# [3] = target: rhodopsin in rod outer segment (ROS) membranes (UniProt P02699); assay: Meta II stabilization assay
# [4] = target: rhodopsin in rod outer segment (ROS) membranes (UniProt P02699); assay: EPR spectroscopy
# [5] = target: rhodopsin in rod outer segment (ROS) membranes (UniProt P02699); assay: time-resolved EPR after a laser flash
# [6] = target: T1, rhodopsin in rod outer segments (ROS); details: cited from earlier work
# Sequence of rhodopsin in rod outer segment (ROS) membranes (P02699 whole entry): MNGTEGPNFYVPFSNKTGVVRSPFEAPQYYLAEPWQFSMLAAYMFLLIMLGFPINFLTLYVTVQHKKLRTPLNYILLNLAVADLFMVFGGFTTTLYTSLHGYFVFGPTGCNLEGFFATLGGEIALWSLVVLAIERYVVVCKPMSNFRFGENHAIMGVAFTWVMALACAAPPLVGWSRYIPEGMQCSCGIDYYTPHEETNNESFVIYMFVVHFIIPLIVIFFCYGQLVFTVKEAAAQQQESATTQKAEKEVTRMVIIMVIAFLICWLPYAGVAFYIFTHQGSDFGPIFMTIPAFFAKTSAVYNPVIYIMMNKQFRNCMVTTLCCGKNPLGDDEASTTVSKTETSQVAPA
# T1 sequence (P02699 whole entry): as above
# Sequence of photoactivated rhodopsin (R*) in ROS membranes (P02699 whole entry): as above
Kd [4],Molecule,ability to stabilize the MII state of rhodopsin [2],further results
,CC(C)C[C@H](NC(=O)[C@H](CC(=O)O)NC(=O)[C@H](CCC(=O)O)NC(=O)[C@H](CC(C)C)NC(=O)[C@@H](NC(=O)C1CC(C)(C)N([O])C1(C)C)C(C)C)C(=O)N[C@@H](CCCCN)C(=O)N[C@@H](CO)C(=O)N[C@@H](CS)C(=O)NC1(C(=O)N[C@@H](CC(C)C)C(=O)N[C@@H](Cc2ccccc2)C(=O)O)CC(C)(C)N([O])C(C)(C)C1 (stereo partly drawn) [Proxyl/TOAC^348-Gtα(340–350)] (X1-VLEDLKSC[TOAC]LF-OH),retained the ability to stabilize the MII state,Kd [1]: 65 µM
12.5 µM,TOAC^343-Gtα(340–350) high-affinity peptide,,Kd [3]: 10 µM; lifetime of binding after the flash (single exponential) [5]: 5.8 ms
,Proxyl-Gtα(340–350): Gtα(340–350) with Proxyl spin label at the amino terminus (Proxyl-IKENLKDCGLF),retained the ability to stabilize the MII state,
4 µM,Proxyl-Gtα(340–350) high-affinity peptide,,
,[Aib]K[Aib][Aib]LKDCGLG,,activity in stabilization of the MII state of rhodopsin [6]: full activity
,IKE-TOAC-LKDCGLF [TOAC^343-Gtα(340–350)],retained the ability to stabilize the MII state,
